Test results reported in patent publication US20260265403A1 (TJ BIOPHARMA SHANGHAI, published 2026).

What was measured:
human CD24 on cells [1] = molecular target: T1, human CD24 on cells (human, UniProt P25063 27-59); assay: cell-based or functional assay
T1 chain (looked up): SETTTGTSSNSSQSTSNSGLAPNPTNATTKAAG

human CD24 on cells [2] = molecular target: T1, human CD24 on cells; assay: flow cytometry (MFI), MCF-7 cells [Cont'd) B]
human CD24 on cells [3] = molecular target: T1, human CD24 on cells; assay: flow cytometry (MFI), NALM6 cells [Cont'd) B]
human CD24 on cells [4] = molecular target: T1, human CD24 on cells; assay: cell-based or functional assay
CD24-his protein [5] = molecular target: T2, CD24-his protein (human, UniProt P25063 27-59, posttranslational modification (purified from mammalian cell)); assay: standard ELISA on CD24-his
T2 construct: Purified from mammalian (HEK293) cells; also called soluble recombinant CD24 protein; human HEK293 purified CD24-his protein; not shown: His tag
T2 chain (looked up): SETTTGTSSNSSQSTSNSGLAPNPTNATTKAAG
Text: (§1) Since human CD24 contains only 33 core amino acids, and is heavily glycosylated, two different proteins were used to perform protein binding assay. CD24-his protein was purified from mammalian cell and as modified by posttranslational modification. While CD24-GST was purified from E. coli with no PTM.

human CD24 on cells [6] = molecular target: T1, human CD24 on cells; assay: flow cytometry (GMFI), A549 cells
Experimental: (§2) Antibodies were 4-fold serially diluted from 40 μg/mL and incubated with MCF7 cells (panel A), OVCAR3 cells (panel B), A549 cells (panel C), and NALM6 cells (panel D) cells for 30 minutes at 4° C. in FACS buffer. Then, PE conjugated-anti-human IgG (H+L) antibody was added and incubated for another 30 minutes. After washing, geometric mean fluorescence intensity (GMFI) of PE was evaluated by FACS.
(§3) Here we used four CD24 highly expressed tumor cell lines MCF7 (breast cancer), OVCAR3 (ovarian cancer), A549 (lung cancer), and NALM6 ([…]).

human CD24 on cells [7] = molecular target: T1, human CD24 on cells; assay: flow cytometry (GMFI), MCF-7 cells
Experimental: as §2, §3

human CD24 on cells [8] = molecular target: T1, human CD24 on cells; assay: flow cytometry (GMFI), NALM6 cells
Experimental: as §2, §3

human CD24 on cells [9] = molecular target: T1, human CD24 on cells; assay: flow cytometry (GMFI), OVCAR3 cells
Experimental: as §2, §3

human CD24 on cells [10] = molecular target: T1, human CD24 on cells; assay: flow cytometry on MCF7, OVCAR3, A549 and NALM6 cells
Experimental: as §2, §3

CD24-his protein [11] = molecular target: T2, CD24-his protein; assay: ELISA, CD24-his (HEK 293), unit taken from the concentration axis
Text: as §1

human CD24 on cells [12] = molecular target: T1, human CD24 on cells; assay: flow cytometry (GMFI), MCF-7 cells
human CD24 on cells [13] = molecular target: T1, human CD24 on cells; assay: flow cytometry (GMFI), NALM6 cells
CD24-his protein [14] = molecular target: T2, CD24-his protein; assay: ELISA, CD24-his(HEK 293) [Cont'd) B]
CD24-his-GST(Ecoli) = molecular target: T3, CD24-his-GST(Ecoli); assay: ELISA, CD24-his-GST(Ecoli) [Cont'd) B]
T3 construct: also called CD24-GST
T3 chain: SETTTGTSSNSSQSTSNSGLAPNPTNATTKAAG

human CD24 on cells [15] = molecular target: T1, human CD24 on cells; assay: flow cytometry (GMFI), MCF-7 cells [Cont'd) C]
human CD24 on cells [16] = molecular target: T1, human CD24 on cells; assay: flow cytometry (GMFI), MC38-hCD24 cells [Cont'd) C]
Human CD24 = molecular target: T4, Human CD24 (human, UniProt P25063 27-59, limits assumed); assay: Biacore (SPR); antibody as ligand, human CD24 as analyte
T4 chain (looked up): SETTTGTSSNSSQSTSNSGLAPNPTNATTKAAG

human CD24 on cells [17] = molecular target: T1, human CD24 on cells; assay: Siglec10-PE competition assay (GMFI); competitor Siglec-10; CD24 source not named on the sheet [Cont'd) D]
CD24-his protein [18] = molecular target: T2, CD24-his protein; assay: Siglec10-PE competition assay (gMFI on the sheet); legend: Siglec-10-his-Biotin mixed with the antibody, plate coated with CD24 protein
Experimental: Samples were washed three times with washing buffer. And then signal was tested.
CD24-his protein was firstly coated in 96-well plate overnight.

B1: 85-D5A10 (4434), IgG4, Kappa (antibody, V domains shown)
VH: EVQLQQSGPELVKPGASVKISCKASGYEFTGYHMNWVKQSPEKSLEWIGEINPITSDKTFNQKFKAKATLTVDRSSSTAYMHLKSLTSDDSAVYYCARRDYGTSLDYWGQGTTLTVSS
VL: DVQITQSPSYLAASPGETITIYCRASKSISKYLAWYQEKPEKTIRLLIYAGSTLQSGIPSRFRGSGSGKDFTLTVSGLEPEDFAMYYCQQHNEYPITFGAGTKLELI
Human CD24 on cells [1]
  EC50 of Phagocytosis assay, IgG4, Kappa; HEK293-CD24: 0.42 µg/mL
  EC50 of Phagocytosis assay, IgG4, Kappa; MCF-7: 0.43 µg/mL
  EC50 of Phagocytosis assay, IgG4, Kappa; NALM6: 0.47 µg/mL
  EC50 of Phagocytosis assay, IgG4, Kappa; OVCAR3: 0.38 µg/mL
Human CD24 on cells [2]
  EC50 (read off the curve): ~0.4 µg/mL
Human CD24 on cells [3]
  EC50 (read off the curve): ~0.4 µg/mL

B2: 4451HM15-IgG1-3A (antibody, V domains shown)
VH: QVQLVQSGAEVKKPGASVKVSCKASGYDFTGYHMGWVRQAPGQGLEWMGEINPITSDKYFNQKFKSRVTMTRDTSISTAYMELSRLRSDDTAVYYCARRDYGTSLDYWGQGTTVTVSS
VL: DIQLTQSPSFLSASVGDRVTITCRASASISKYLAWYQQKPGKAPKLLIYAGSTLHSGIPSRFRGSGSGTEFTLTISSLQPEDFATYYCQQHNEYPITFGQGTKLEIKR
notes: Produced in a CHO-based system
Human CD24 on cells [4]
  EC50 of macrophage mediated phagocytosis against multiple tumor cells: 1.97 to 2.45 nM
CD24-his protein [5]
  EC50: 10.1 µg/mL
Human CD24 on cells [6]
  EC50 (read off the curve): ~0.2 µg/mL
Human CD24 on cells [7]
  EC50 (read off the curve): ~0.2 µg/mL
Human CD24 on cells [8]
  EC50 (read off the curve): ~0.3 µg/mL
Human CD24 on cells [9]
  EC50 (read off the curve): ~0.3 µg/mL
Human CD24 on cells [10]
  EC50: 1.2 to 2.11 nM
CD24-his protein [11]
  EC50: 0.0101 µg/mL

B3: 74-H4C6 (4451), IgG4, Kappa (antibody, V domains shown)
VH: EVQLQQSGPELVKPGASVKISCKASGYDFTGYHMNWVKQSPEKSLEWIGEINPITSDKTFNQKFKSKATLTVDRSSSTAYMYLKSLTSEDSAVYYCARRDYGTSLDYWGQGTTLTVSS
VL: DVQITQSPSYLAASPGETITIYCRASKSISKYLAWYQEKPEKTNRLLIYAGSTLHSGIPSRFRGSGSGKDFTLTVSGLEPEDFAMYYCQQHNEYPITFGAGTKLELK
Human CD24 on cells [1]
  EC50 of Phagocytosis assay, IgG4, Kappa; HEK293-CD24: 0.44 µg/mL
  EC50 of Phagocytosis assay, IgG4, Kappa; MCF-7: 0.74 µg/mL
  EC50 of Phagocytosis assay, IgG4, Kappa; NALM6: 0.32 µg/mL
  EC50 of Phagocytosis assay, IgG4, Kappa; OVCAR3: 0.16 µg/mL
Human CD24 on cells [3]
  EC50 (read off the curve): ~0.4 µg/mL

B4: 4451H-IgG4 (antibody, V domains shown)
VH: QVQLVQSGAEVKKPGASVKVSCKASGYDFTGYHMNWVRQAPGQGLEWMGEINPITSDKTFNQKFKSRVTMTRDTSISTAYMELSRLRSDDTAVYYCARRDYGTSLDYWGQGTTVTVSS
VL: DIQLTQSPSFLSASVGDRVTITCRASKSISKYLAWYQQKPGKAPKLLIYAGSTLHSGIPSRFRGSGSGTEFTLTISSLQPEDFATYYCQQHNEYPITFGQGTKLEIK
notes: also called VH1+VL3 fused with human IgG4 Fc
Human CD24 on cells [12]
  EC50 (read off the curve): ~0.2 µg/mL
Human CD24 on cells [13]
  EC50 (read off the curve): ~0.3 µg/mL
CD24-his protein [14]
  EC50 (read off the curve): ~0.02 µg/mL
CD24-his-GST(Ecoli)
  EC50 (read off the curve): ~0.06 µg/mL
Human CD24 on cells [15]
  EC50 (read off the curve): ~0.2 µg/mL
Human CD24 on cells [16]
  EC50 (read off the curve): ~0.2 µg/mL
Human CD24
  Kd: 15.5 nM
  koff: 0.0175 s⁻¹
  kon: 1.13e+06 M⁻¹ s⁻¹
Human CD24 on cells [17]
  IC50 (read off the curve): ~1 µg/mL

B5: 4451HM15-IgG4 (antibody, V domains shown)
VH: QVQLVQSGAEVKKPGASVKVSCKASGYDFTGYHMGWVRQAPGQGLEWMGEINPITSDKYFNQKFKSRVTMTRDTSISTAYMELSRLRSDDTAVYYCARRDYGTSLDYWGQGTTVTVSS
VL: DIQLTQSPSFLSASVGDRVTITCRASASISKYLAWYQQKPGKAPKLLIYAGSTLHSGIPSRFRGSGSGTEFTLTISSLQPEDFATYYCQQHNEYPITFGQGTKLEIK
notes: IgG4; also called IgG4 isoform of 4451HM15
CD24-his protein [18]
  IC50 (read off the curve): ~1 µg/mL
